Where two headings read alike, the source gives them in different places. Numbered stars: 1 amine (or outer) side, 2 acyl side, 3 side chain; on linkers, the order of the positions; unused ones are H or OH. Square brackets hold non-standard residues; d marks the D form. Ends that are not written are not given here. * marks the point of attachment. Cholyl = C[C@H](CCC(=O)*)[C@H]1CC[C@H]2[C@@H]3[C@H](O)C[C@@H]4C[C@H](O)CC[C@]4(C)[C@H]3C[C@H](O)[C@]12C; Deoxycholoyl = C[C@H](CCC(=O)*)[C@H]1CC[C@H]2[C@@H]3CC[C@@H]4C[C@H](O)CC[C@]4(C)[C@H]3C[C@H](O)[C@]12C; Lithocholoyl = C[C@H](CCC(=O)*)[C@H]1CC[C@H]2[C@@H]3CC[C@@H]4C[C@H](O)CC[C@]4(C)[C@H]3CC[C@]12C; Adp = aminoethyldibenzofuranylpropanoic acid, O=C(CCc1cccc2c1oc1c(CCN[*:1])cccc12)[*:2]; iminobiotinyl = N=C1N[C@H]2[C@H](CS[C@H]2CCCCC(=O)*)N1; Tyr(3-I) = N[C@@H](Cc1ccc(O)c(I)c1)C(=O)O; FICO = 5-(and 6-)-carboxyfluoresceinyl; NMeL = CN[C@@H](CC(C)C)C(=O)O; NMeV = CN[C@H](C(=O)O)C(C)C; NANA = N-acetyl neuraminyl; Boc = CC(C)(C)OC(=O)*
B1: LithoCA-LVFFA-oh (peptide)
peptide: Lithocholoyl-LVFFA-OH
B2: iminobiotinyl-Aβ1-15 (peptide)
peptide: iminobiotinyl-DAEFRHDSGYEVHHQ
B3: h-DDII(N-Me-Leu)VEH(Adp)-LKLVFF-oh (peptide)
peptide: H-DDII[NMeL]VEH[Adp]LKLVFF-OH
SMILES: CC[C@H](C)[C@H](NC(=O)[C@H](CC(=O)O)NC(=O)[C@@H](N)CC(=O)O)C(=O)N[C@H](C(=O)N(C)[C@@H](CC(C)C)C(=O)N[C@H](C(=O)N[C@@H](CCC(=O)O)C(=O)N[C@@H](Cc1c[nH]cn1)C(=O)NCCc1cccc2c1oc1c(CCC(=O)N[C@@H](CC(C)C)C(=O)N[C@@H](CCCCN)C(=O)N[C@@H](CC(C)C)C(=O)N[C@H](C(=O)N[C@@H](Cc3ccccc3)C(=O)N[C@@H](Cc3ccccc3)C(=O)O)C(C)C)cccc12)C(C)C)[C@@H](C)CC
B4: iminobiotinyl-Aβ6-20 (peptide)
peptide: iminobiotinyl-HDSGYEVHHQKLVFF
B5: cholyl-Aβ11-25 (peptide)
peptide: Cholyl-EVHHQKLVFFAEDVG
B6: NANA-Aβ26-40 (peptide)
peptide: {NANA}-SNKGAIIGLMVGGVV
B7: iminobiotinyl-Aβ21-35 (peptide)
peptide: iminobiotinyl-AEDVGSNKGAIIGLM
B8: cholyl-Aβ26-40 (peptide)
peptide: Cholyl-SNKGAIIGLMVGGVV
B9: t-Boc-LVFFA-oh (peptide)
peptide: Boc-LVFFA-OH
B10: FICO-Aβ21-35 (peptide)
peptide: {FICO}-AEDVGSNKGAIIGLM
B11: NANA-Aβ21-35 (peptide)
peptide: {NANA}-AEDVGSNKGAIIGLM
B12: CA-AVAFA-oh (peptide)
peptide: Cholyl-AVAFA-OH
SMILES: CC(C)[C@H](NC(=O)[C@H](C)NC(=O)CC[C@@H](C)[C@H]1CC[C@H]2[C@@H]3[C@H](O)C[C@@H]4C[C@H](O)CC[C@]4(C)[C@H]3C[C@H](O)[C@]12C)C(=O)N[C@@H](C)C(=O)N[C@@H](Cc1ccccc1)C(=O)N[C@@H](C)C(=O)O
B13: CA-GFF-oh (peptide)
peptide: Cholyl-Gly-Phe-Phe-OH
SMILES: C[C@H](CCC(=O)NCC(=O)N[C@@H](Cc1ccccc1)C(=O)N[C@@H](Cc1ccccc1)C(=O)O)[C@H]1CC[C@H]2[C@@H]3[C@H](O)C[C@@H]4C[C@H](O)CC[C@]4(C)[C@H]3C[C@H](O)[C@]12C
B14: FICO-Aβ1-15 (peptide)
peptide: {FICO}-DAEFRHDSGYEVHHQ
B15: cholyl-Aβ1-15 (peptide)
peptide: Cholyl-DAEFRHDSGYEVHHQ
B16: DeoxyCA-LVFFA-oh (peptide)
peptide: Deoxycholoyl-LVFFA-OH
B17: CA-LVF(IY)A-oh (peptide)
peptide: Cholyl-LVF[Tyr(3-I)]A-OH
B18: iminobiotinyl-Aβ26-40 (peptide)
peptide: iminobiotinyl-SNKGAIIGLMVGGVV
B19: FICO-Aβ16-30 (peptide)
peptide: {FICO}-KLVFFAEDVGSNKGA
B20: cholyl-Aβ16-19-amide (PPI-321 as printed in Table IV) (peptide)
peptide: Cholyl-KLVF-NH2
SMILES: CC(C)C[C@H](NC(=O)[C@H](CCCCN)NC(=O)CC[C@@H](C)[C@H]1CC[C@H]2[C@@H]3[C@H](O)C[C@@H]4C[C@H](O)CC[C@]4(C)[C@H]3C[C@H](O)[C@]12C)C(=O)N[C@H](C(=O)N[C@@H](Cc1ccccc1)C(N)=O)C(C)C
B21: h-DDIII(N-Me-Val)DLL(Adp)-HQKLVFF-oh (peptide)
peptide: H-DDIII[NMeV]DLL[Adp]HQKLVFF-OH
SMILES: CC[C@H](C)[C@H](NC(=O)[C@H](CC(=O)O)NC(=O)[C@@H](N)CC(=O)O)C(=O)N[C@H](C(=O)N[C@H](C(=O)N(C)[C@H](C(=O)N[C@@H](CC(=O)O)C(=O)N[C@@H](CC(C)C)C(=O)N[C@@H](CC(C)C)C(=O)NCCc1cccc2c1oc1c(CCC(=O)N[C@@H](Cc3c[nH]cn3)C(=O)N[C@@H](CCC(N)=O)C(=O)N[C@@H](CCCCN)C(=O)N[C@@H](CC(C)C)C(=O)N[C@H](C(=O)N[C@@H](Cc3ccccc3)C(=O)N[C@@H](Cc3ccccc3)C(=O)O)C(C)C)cccc12)C(C)C)[C@@H](C)CC)[C@@H](C)CC
B22: iminobiotinyl-Aβ16-30 (peptide)
peptide: iminobiotinyl-KLVFFAEDVGSNKGA
B23: cholyl-Aβ21-35 (peptide)
peptide: Cholyl-AEDVGSNKGAIIGLM
B24: FICO-Aβ6-20 (peptide)
peptide: {FICO}-HDSGYEVHHQKLVFF
B25: NANA-Aβ6-20 (peptide)
peptide: {NANA}-HDSGYEVHHQKLVFF
B26: CA-FFV-oh (peptide)
peptide: Cholyl-Phe-Phe-Val-OH
SMILES: CC(C)[C@H](NC(=O)[C@H](Cc1ccccc1)NC(=O)[C@H](Cc1ccccc1)NC(=O)CC[C@@H](C)[C@H]1CC[C@H]2[C@@H]3[C@H](O)C[C@@H]4C[C@H](O)CC[C@]4(C)[C@H]3C[C@H](O)[C@]12C)C(=O)O
B27: NANA-Aβ16-30 (peptide)
peptide: {NANA}-KLVFFAEDVGSNKGA
B28: CA-LVFFA-oh (all D amino acids) (peptide)
peptide: Cholyl-[dL][dV][dF][dF][dA]-OH
B29: iminobiotinyl-Aβ11-25 (peptide)
peptide: iminobiotinyl-EVHHQKLVFFAEDVG
B30: cholyl-Aβ16-30 (peptide)
peptide: Cholyl-KLVFFAEDVGSNKGA
B31: CA-LVFAA-oh (peptide)
peptide: Cholyl-LVFAA-OH
SMILES: CC(C)C[C@H](NC(=O)CC[C@@H](C)[C@H]1CC[C@H]2[C@@H]3[C@H](O)C[C@@H]4C[C@H](O)CC[C@]4(C)[C@H]3C[C@H](O)[C@]12C)C(=O)N[C@H](C(=O)N[C@@H](Cc1ccccc1)C(=O)N[C@@H](C)C(=O)N[C@@H](C)C(=O)O)C(C)C
B32: CA-FFVL-oh (peptide)
peptide: Cholyl-FFVL-OH
SMILES: CC(C)C[C@H](NC(=O)[C@@H](NC(=O)[C@H](Cc1ccccc1)NC(=O)[C@H](Cc1ccccc1)NC(=O)CC[C@@H](C)[C@H]1CC[C@H]2[C@@H]3[C@H](O)C[C@@H]4C[C@H](O)CC[C@]4(C)[C@H]3C[C@H](O)[C@]12C)C(C)C)C(=O)O
B33: NANA-Aβ1-15 (peptide)
peptide: {NANA}-DAEFRHDSGYEVHHQ

Columns and labels:
Experiment in all cases: cell-based or functional assay
[1] = target: natural β-amyloid peptide β-AP1-40 (human)
Sequence of natural β-amyloid peptide β-AP1-40 (human) (peptide, as listed by the source): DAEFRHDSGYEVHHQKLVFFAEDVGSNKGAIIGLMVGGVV

[2] = target: natural β-amyloid peptide β-AP1-40 (human); remark: listed apart in the source
[3] = target: natural β-amyloid peptide β-AP1-40 (human); remark: listed apart in the source

Row | Binder | % Inucl'n; nucleation assay; 100 mole % [1] | ΔLag; nucleation assay; 100 mole % [1] | % Inhibition of Plateau; nucleation assay; 100 mole % [2] | Fold Increase in Lag Time; nucleation assay; 100 mole % [2] | other results
1 | B1 | -229% | 2.8 ratio | – | – | % Iext'n; seeded extension assay; 25 mole % [1]: 0%
2 | B2 | – | – | ~0% | 1.2 fold | –
3 | B3 | -29% | 1.8 ratio | – | – | % Iext'n; seeded extension assay; 25 mole % [1]: 7%
4 | B4 | – | – | 44% | 1.6 fold | –
5 | B5 | – | – | ~0% | 1.5 fold | –
6 | B6 | – | – | ~0% | 1.3 fold | –
7 | B7 | – | – | 66% | ~1 fold | –
8 | B8 | – | – | 87% | > 4.5 fold | –
9 | B9 | -5% | 3 ratio | – | – | –
10 | B10 | – | – | 25% | 1.2 fold | –
11 | B11 | – | – | 53% | ~1 fold | –
12 | B12 | -15% | 1 ratio | – | – | –
13 | B13 | 0% | 1 ratio | – | – | –
14 | B14 | – | – | 30% | ~1 fold | –
15 | B15 | – | – | 100% | > 4.5 fold | –
16 | B16 | -114% | 3 ratio | – | – | % Iext'n; seeded extension assay; 25 mole % [1]: 82%
17 | B17 | 95% | > 5 ratio | – | – | –

Row | Binder | % Inucl'n; nucleation assay; 100 mole % [1] | ΔLag; nucleation assay; 100 mole % [1] | % Inhibition of Plateau; nucleation assay; 100 mole % [2] | Fold Increase in Lag Time; nucleation assay; 100 mole % [2] | other results
18 | B18 | – | – | ~0% | 2.3 fold | –
19 | B19 | – | – | 59% | 1.6 fold | –
20 | B20 | – | – | – | – | % Inhibition of Plateau; nucleation assay; 100 mole % [3]: ~0%; Fold Increase in Lag Time; nucleation assay; 100 mole % [3]: 1.2 fold
21 | B21 | -75% | 1.4 ratio | – | – | % Iext'n; seeded extension assay; 25 mole % [1]: 0%
22 | B22 | – | – | 55% | 1.2 fold | –
23 | B23 | – | – | 51% | 1.6 fold | –
24 | B24 | – | – | ~0% | 1.9 fold | –
25 | B25 | – | – | 64% | 1.3 fold | –
26 | B26 | -33% | 2.2 ratio | – | – | % Iext'n; seeded extension assay; 25 mole % [1]: 7%
27 | B27 | – | – | ~0% | ~1 fold | –
28 | B28 | 27% | 2.8 ratio | – | – | –
29 | B29 | – | – | 40% | 1.2 fold | –
30 | B30 | – | – | 100% | > 4.5 fold | –
31 | B31 | 40% | 1.6 ratio | – | – | –
32 | B32 | 33% | 4.1 ratio | – | – | % Iext'n; seeded extension assay; 25 mole % [1]: 75%
33 | B33 | – | – | ~0% | ~1 fold | –
